4 molecules from article PMC12491784, “A Circular RNA Promotes Tumor Metastasis through Stabilizing MSI2 Protein in Pancreatic Ductal Adenocarcinoma” can be followed below.

The target in data set [1] is T1, MSI2 (Musashi-2), recombinant (UniProt Q96DH6 1-328). Description: EMSA; EMSA: kit binding buffer (Beyotime GS009), 25 C 1 h, 5% native PAGE; RNA pull-down: 100 pmol biotinylated probe on streptavidin beads, 4 C 4 h; high-stringency. Particulars: protein: recombinant; tags: GST; label: 5' biotin. A general note: Mobility shift assays separate free from complexed probe on a gel.

Data set [2] addresses T1, MSI2 (Musashi-2), recombinant. In words: pull-down; EMSA: kit binding buffer (Beyotime GS009), 25 C 1 h, 5% native PAGE; RNA pull-down: 100 pmol biotinylated probe on streptavidin beads, 4 C 4 h; high-stringency. Particulars: protein: recombinant; tags: GST; label: 5' biotin.

T1 sequence (Q96DH6 whole entry): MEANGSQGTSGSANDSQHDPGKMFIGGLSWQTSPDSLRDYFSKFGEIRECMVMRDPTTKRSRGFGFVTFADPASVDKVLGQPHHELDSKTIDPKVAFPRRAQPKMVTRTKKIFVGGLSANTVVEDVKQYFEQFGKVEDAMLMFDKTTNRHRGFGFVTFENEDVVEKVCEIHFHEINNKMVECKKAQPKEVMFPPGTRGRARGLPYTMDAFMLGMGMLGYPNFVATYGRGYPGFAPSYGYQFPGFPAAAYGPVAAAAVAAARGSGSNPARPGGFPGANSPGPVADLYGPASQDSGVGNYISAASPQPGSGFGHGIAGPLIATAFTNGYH

In the case of UCCUAUCAAAUUAGUAAACCAAAG (ssRNA) [P2 RNA probe], in data set [1], the binding result is reported as “binds”.

On to UCCUAUCAAAUAACUAAACCAAAG (ssRNA) [P2-mut RNA probe], for which the binding result in data set [2] was “no binding”. Take GUGUGCUCCAUAGUUUAUCAAAAG (ssRNA) [P1 RNA probe]: the binding result in data set [1] was “binds”. For the molecule GUGUGCUCCAAACUUUAUCAAAAG (ssRNA) [P1-mut RNA probe], in data set [2], the binding result is on record as “no binding”.
